Source: patent US20220380421

Test system: GST-AcrIIA16_Lmo

Substance: Myc-tagged SpyCas9-sgRNA
- target DNA cleavage by SpyCas9 co-immunoprecipitated with the Acr: SpyCas9 co-purified with AcrIIA16Lmo is not inhibited
